{"source": "patent US9688764B2", "about": "“Methods of treating breast cancer by administering anti-human prolactin receptor (PRLR) antibodies” (REGENERON PHARMACEUTICALS, INC., priority 2013, dated 2017)", "molecules": {"B1": {"name": "H1H6953N-DM1 (conjugate)", "VH": "EVQLLESGGGLVQPGGTLRLSCAASGFTFSAYAMSWVRQAPGKGLEWVSSINVRAGDTYYADSVKGRFTISRDNSKNTLFLLMNSLRAEDTAAYYCAKARYSSNWGFDFWGQGTLVTVSS", "VL": "DIVMTQSPDSLTVSLGARTTINCQSSQTILHSSNNHNYLAWYQQKPGLPPKLLIYWSSTRESGVPDRFSGSGSGTDFTLTISSLQAEDVAIYYCQQYSNTPYTFGQGTKLEIN"}, "B2": {"name": "H1H6958N2-DM1: anti-PRLR antibody H1H6958N2 conjugated to DM1 through an SMCC linker (conjugate)", "VH": "QVQLVESGGGVVQPGRSLRLSCGASGFTFRNYGMQWVRQGPGKGLEWVTLISFDGNDKYYADSVKGRFTISRDNSKNTLFLQMNSLRTEDTAVYYCARGGDFDYWGQGTLVTVSS", "VL": "DIQMTQSPSSLSASVGDRVTITCRASQDIRKDLGWYQQKPGKAPKRLIYAASSLHSGVPSRFSGSGSGTEFTLTISSLQPEDFATYYCLQHNSYPMYTFGQGTKLEIK"}}, "key": {"[1]": {"tested_on": "NCI-N87 cells", "test": "Cell viability (cell kill) assay", "assay_type": "cell-based", "settings": "Table 17", "source_text": "(§1) PRLR-overexpressing cells, including HEK293, PC3, MCF7 and NCI-N87, were generated to assess the ability of anti-PRLR conjugated antibodies to reduce cell viability. For comparative purposes, PC3 and T47D cells with overexpressed ErbB2 were also generated, as well as an MCF7 cell line over-expressing both hPRLR and hErbB2. Briefly, Lipofectamine® 2000-mediated transfection methodology was utilized to generate HEK293 cells expressing human PRLR (HEK293/hPRLR) or human ErbB2 (HEK293/hErbB2). Lipofectamine LTX with Plus Reagent was used to generate PC3 cells expressing human PRLR (PC3/hPRLR) or human ErbB2 (PC3/hErbB2). Lentiviral-mediated transduction was utilized to generate MCF7 cells expressing human PRLR (MCF7/hPRLR), NCI-N87 cells expressing human PRLR (NCI-N87/hPRLR), T47D cells over-expressing human ErbB2 (T47D/hErbB2), and MCF7 cells expressing both human PRLR and human ErbB2 (MCF7/hPRLR/hErbB2). All lines were selected for at least two weeks in complete growth media plus appropriate selection reagents. Stably expressing populations were enriched for PRLR expression via FACS using the anti PRLR antibody Control I.\n(§2) Next, the ability of anti-PRLR-DM1 antibody-drug conjugates (i.e., anti-PRLR antibodies conjugated to DM1 via a non-cleavable linker [SMCC]) to reduce cell viability was determined using in vitro cell based assays. Cells were seeded in PDL-coated 96 well plates at 1500 to 10000 cells per well in complete growth media and allowed to grow overnight. For cell viability curves, ADCs or free DM1 (as the methyl disulfide derivative DM1-SMe) were added to the cells at final concentrations ranging from 500 nM to 5 pM and incubated for 3 days. The 293, PC3 and T47D cells were incubated with CCK8 (Dojindo, Rockville, Md.) for the final 1-3 hours and the absorbance at 450 nm (OD450) was determined on a Flexstation3 (Molecular Devices, Sunnyvale, Calif.). MCF7 cells were treated with Hoechst 33342 nuclear stain while being fixed with 4% formaldehyde. Images were acquired on the ImageXpress micro XL (Molecular Devices, Sunnyvale, Calif.) and nuclear counts were determined via Columbus image analysis software (Perkin Elmer, Shelton, Conn.). Background OD450 values (PC3, 293, and T47D) or nuclear counts (MCF7) from digitonin (40 nM) treated cells was subtracted from all wells and viability was expressed as a percentage of the untreated controls. IC50 values were determined from a four-parameter logistic equation over a 10-point response curve (GraphPad Prism).\nThe potency of anti-PRLR conjugated antibodies compared with a similarly conjugated antibody to the co-expressed ErbB2 cell surface target was also assessed. […]"}, "[2]": {"tested_on": "MCF7/hPRLR/hErbB2 cells", "test": "Cell viability (cell kill) assay", "assay_type": "cell-based, human", "settings": "MCF/PRLR + ErbB2; Table 17", "source_text": "as §1, §2\n(§3) The potency of anti-PRLR conjugated antibodies compared with a similarly conjugated antibody to the co-expressed ErbB2 cell surface target was also assessed. Both PRLR and ErbB2 are expressed in a majority of breast cancers, and anti-ErbB2 antibodies conjugated to DM1 have shown clinical efficacy in targeting ErbB2 (+) breast cancer (Hurvitz et al; 2013)."}, "[3]": {"tested_on": "NCI-N87/hPRLR cells", "test": "Cell viability (cell kill) assay", "assay_type": "cell-based, human", "settings": "NCI-N87/PRLR; Table 17", "source_text": "as §1, §2, §3"}, "[4]": {"tested_on": "PC3/hErbB2 cells", "test": "Cell viability (cell kill) assay", "assay_type": "cell-based, human", "settings": "PC3/ErbB2; Table 15", "source_text": "as §1, §2, §3"}, "[5]": {"tested_on": "T47D/hErbB2 cells", "test": "Cell viability (cell kill) assay", "assay_type": "cell-based, human", "settings": "T47D/ErbB2; Table 16", "source_text": "as §1, §2, §3"}, "[6]": {"tested_on": "SK-BR-3 cells", "test": "Cell viability (cell kill) assay", "assay_type": "cell-based", "settings": "Table 16"}, "[7]": {"tested_on": "T47D#11 tumors", "test": "Tumor growth inhibition in xenograft-bearing mice", "assay_type": "in vivo, CB17 SCID mice", "settings": "multi-dose, 5 and 15 mg/kg", "source_text": "Briefly, 20×10^6 MCF7/PRLR cells (ATCC HTB-22 transfected with full length hPRLR as previously described) were implanted subcutaneously into the left mammary fat pad of female NCr nude mice. In other studies, 10×10^6 PC3/PRLR (ATCC CRL-1435 transfected with full length hPRLR as previously described) were implanted subcutaneously into the left flank of male SCID mice. Additionally, 10×10^6 parental T47D (ATCC HTB-133) or […] T47D#11 cells (ATCC HTB-133 serially passaged in vivo as described below) were subcutaneously implanted into the left flank of female CB17 SCID mice. All mice were obtained from Taconic (Hudson, N.Y.). Each bolus of cells was supplemented with a 90-day estrogen release pellet (1.7 mg/pellet; Innovative Research America, Sarasota Fla.). Once tumors had reached an average volume of 250 mm^3, mice were randomized into groups of seven and dosed with anti-PRLR antibody-drug conjugates of the invention or control reagents. Control reagents included PBS vehicle, free methyl-disulfide DM1 (DM1-SMe) and isotype Control 1-DM1.\nIn multi-dose studies, mice were dosed once a week for a total of three weeks with tumor volumes and body weights being monitored twice weekly throughout the study. Test ADCs were dosed at 5 and/or 15 mg/kg in the multi-dose studies. In single-dose studies, mice received a single dose of test ADC, and tumor volumes and body weights were monitored twice weekly throughout the study. Test ADCs were dosed at 1, 2.5, 5, and 15 mg/kg in the single-dose studies. Average tumor size as well as tumor growth inhibition relative to the vehicle treated group were calculated for each group. Tumors were measured with calipers twice a week until the average size of the vehicle group reached 1000 mm^3. Tumor size was calculated using the formula (length×width^2)/2. Tumor growth inhibition was calculated according to the following formula: (1−((Tfinal−Tinitial)/(Cfinal−Cinitial)))*100, where T (treated group) and C (control group) represent the mean tumor mass on the day the vehicle group reached 1000 mm^3. […] Results are summarized in Tables 21-25 (multi-dose) and Table 26 (single dose). (NT=not tested in the particular experiment shown)."}}}
{"molecule": "B1", "values": [{"measurement": "% Kill", "setting": "[1]", "result": 83, "unit": "%"}, {"measurement": "IC50", "setting": "[1]", "result": 90, "unit": "nM"}, {"measurement": "IC50", "setting": "[2]", "result": 0.33, "unit": "nM"}, {"measurement": "IC50", "setting": "[3]", "result": 2.9, "unit": "nM"}, {"measurement": "IC50", "setting": "[4]", "result": 80, "unit": "nM"}, {"measurement": "% Kill", "setting": "[5]", "result": 80, "unit": "%"}, {"measurement": "IC50", "setting": "[5]", "result": 2.4, "unit": "nM"}, {"measurement": "IC50", "setting": "[6]", "result": 100, "unit": "nM"}]}
{"molecule": "B2", "values": [{"measurement": "effect on T47D#11 tumor growth", "setting": "[7]", "result": "potently inhibited tumor growth"}]}
